One test concerns the target T1, CRF1R receptor (UniProt P34998 24-415, limits assumed).
T1 sequence (looked up): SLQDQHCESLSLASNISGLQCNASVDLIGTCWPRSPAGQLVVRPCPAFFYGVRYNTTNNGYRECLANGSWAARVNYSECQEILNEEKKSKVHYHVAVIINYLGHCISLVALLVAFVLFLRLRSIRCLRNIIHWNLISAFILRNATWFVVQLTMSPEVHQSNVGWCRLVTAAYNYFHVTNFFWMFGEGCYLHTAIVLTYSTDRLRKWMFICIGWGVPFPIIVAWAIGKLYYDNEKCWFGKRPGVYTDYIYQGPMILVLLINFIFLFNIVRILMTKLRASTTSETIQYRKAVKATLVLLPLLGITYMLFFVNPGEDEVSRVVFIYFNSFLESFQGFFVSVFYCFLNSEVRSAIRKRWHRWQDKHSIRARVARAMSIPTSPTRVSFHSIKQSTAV
As to the kind of experiment: cell-based or functional assay.

For test [1], the target named is human corticotropin-releasing factor 2a (CRF2a receptor) (human), Q13324. The experiment in a line: cell-based or functional assay.
Sequence of human corticotropin-releasing factor 2a (CRF2a receptor) (human), Q13324 (Q13324 20-411): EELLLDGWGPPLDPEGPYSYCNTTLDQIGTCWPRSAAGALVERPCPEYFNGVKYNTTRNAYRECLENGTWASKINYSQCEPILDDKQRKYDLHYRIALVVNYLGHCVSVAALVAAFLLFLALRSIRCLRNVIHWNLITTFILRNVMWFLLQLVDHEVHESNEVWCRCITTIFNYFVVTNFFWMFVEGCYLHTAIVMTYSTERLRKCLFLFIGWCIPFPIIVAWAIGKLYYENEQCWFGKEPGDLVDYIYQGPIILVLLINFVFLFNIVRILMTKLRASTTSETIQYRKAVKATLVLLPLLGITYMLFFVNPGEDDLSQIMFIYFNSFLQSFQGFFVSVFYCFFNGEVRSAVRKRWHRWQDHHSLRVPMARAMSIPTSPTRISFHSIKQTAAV

*1 amine or outer side, *2 acyl side, *3 side chain or, on linkers, in order; H or OH if unused. Where no end group is shown, it is not given here. Side-chain parts run from the residue outwards. [ ]: non-standard residue; d: D form. The star is where a group is joined. C18 diacid = O=C(O)CCCCCCCCCCCCCCCCC(=O)*; C16 diacid = O=C(O)CCCCCCCCCCCCCCC(=O)*; γGlu = O=C(O)[C@H](CCC(=O)[*:2])N[*:1]; NMeI = CC[C@H](C)[C@H](NC)C(=O)O; Api = NC1(C(=O)O)CCNCC1; Abu = CC[C@H](N)C(=O)O; Dap = NC[C@H](N)C(=O)O; Aib = CC(C)(N)C(=O)O

B1: SEQ ID NO 126 (peptide)
peptide: Ac-IVLSLD[dV]PIKLK([γGlu-C18 diacid])KILLEQEKQKKQREQAETNAQILAQV-NH2
SMILES: CC[C@H](C)[C@H](NC(C)=O)C(=O)N[C@H](C(=O)N[C@@H](CC(C)C)C(=O)N[C@@H](CO)C(=O)N[C@@H](CC(C)C)C(=O)N[C@@H](CC(=O)O)C(=O)N[C@@H](C(=O)N1CCC[C@H]1C(=O)N[C@H](C(=O)N[C@@H](CCCCN)C(=O)N[C@@H](CC(C)C)C(=O)N[C@@H](CCCCNC(=O)CC[C@H](NC(=O)CCCCCCCCCCCCCCCCC(=O)O)C(=O)O)C(=O)N[C@@H](CCCCN)C(=O)N[C@H](C(=O)N[C@@H](CC(C)C)C(=O)N[C@@H](CC(C)C)C(=O)N[C@@H](CCC(=O)O)C(=O)N[C@@H](CCC(N)=O)C(=O)N[C@@H](CCC(=O)O)C(=O)N[C@@H](CCCCN)C(=O)N[C@@H](CCC(N)=O)C(=O)N[C@@H](CCCCN)C(=O)N[C@@H](CCCCN)C(=O)N[C@@H](CCC(N)=O)C(=O)N[C@@H](CCCNC(=N)N)C(=O)N[C@@H](CCC(=O)O)C(=O)N[C@@H](CCC(N)=O)C(=O)N[C@@H](C)C(=O)N[C@@H](CCC(=O)O)C(=O)N[C@H](C(=O)N[C@@H](CC(N)=O)C(=O)N[C@@H](C)C(=O)N[C@@H](CCC(N)=O)C(=O)N[C@H](C(=O)N[C@@H](CC(C)C)C(=O)N[C@@H](C)C(=O)N[C@@H](CCC(N)=O)C(=O)N[C@H](C(N)=O)C(C)C)[C@@H](C)CC)[C@@H](C)O)[C@@H](C)CC)[C@@H](C)CC)C(C)C)C(C)C
For B1, the “Emax (% I)” value in the test with CRF1R receptor was 20%. Further, in test [1], the EC50 [nM] (cAMP) came out at 0.05 nM.

B2: SEQ ID NO 70 (peptide)
peptide: [NMeI]VLSLD[dV]PIKLK([γGlu-C16 diacid])KILLEQEKQKKQREQAETN[Dap]QILAQV-NH2
modifications: N-terminus assumed
SMILES: CC[C@H](C)[C@H](NC)C(=O)N[C@H](C(=O)N[C@@H](CC(C)C)C(=O)N[C@@H](CO)C(=O)N[C@@H](CC(C)C)C(=O)N[C@@H](CC(=O)O)C(=O)N[C@@H](C(=O)N1CCC[C@H]1C(=O)N[C@H](C(=O)N[C@@H](CCCCN)C(=O)N[C@@H](CC(C)C)C(=O)N[C@@H](CCCCNC(=O)CC[C@H](NC(=O)CCCCCCCCCCCCCCC(=O)O)C(=O)O)C(=O)N[C@@H](CCCCN)C(=O)N[C@H](C(=O)N[C@@H](CC(C)C)C(=O)N[C@@H](CC(C)C)C(=O)N[C@@H](CCC(=O)O)C(=O)N[C@@H](CCC(N)=O)C(=O)N[C@@H](CCC(=O)O)C(=O)N[C@@H](CCCCN)C(=O)N[C@@H](CCC(N)=O)C(=O)N[C@@H](CCCCN)C(=O)N[C@@H](CCCCN)C(=O)N[C@@H](CCC(N)=O)C(=O)N[C@@H](CCCNC(=N)N)C(=O)N[C@@H](CCC(=O)O)C(=O)N[C@@H](CCC(N)=O)C(=O)N[C@@H](C)C(=O)N[C@@H](CCC(=O)O)C(=O)N[C@H](C(=O)N[C@@H](CC(N)=O)C(=O)N[C@@H](CN)C(=O)N[C@@H](CCC(N)=O)C(=O)N[C@H](C(=O)N[C@@H](CC(C)C)C(=O)N[C@@H](C)C(=O)N[C@@H](CCC(N)=O)C(=O)N[C@H](C(N)=O)C(C)C)[C@@H](C)CC)[C@@H](C)O)[C@@H](C)CC)[C@@H](C)CC)C(C)C)C(C)C
Turning to B2, the “Emax (% I)” value with CRF1R receptor came out at 0%. This molecule showed an EC50 [nM] (cAMP) in test [1] of 0.17 nM.

B3: SEQ ID NO 129 (peptide)
peptide: Ac-IVLSLD[dV]PIKLK([γGlu-C18 diacid])KILLEQEKQKKQREQAETN[Api]QILAQV-NH2
SMILES: CC[C@H](C)[C@H](NC(C)=O)C(=O)N[C@H](C(=O)N[C@@H](CC(C)C)C(=O)N[C@@H](CO)C(=O)N[C@@H](CC(C)C)C(=O)N[C@@H](CC(=O)O)C(=O)N[C@@H](C(=O)N1CCC[C@H]1C(=O)N[C@H](C(=O)N[C@@H](CCCCN)C(=O)N[C@@H](CC(C)C)C(=O)N[C@@H](CCCCNC(=O)CC[C@H](NC(=O)CCCCCCCCCCCCCCCCC(=O)O)C(=O)O)C(=O)N[C@@H](CCCCN)C(=O)N[C@H](C(=O)N[C@@H](CC(C)C)C(=O)N[C@@H](CC(C)C)C(=O)N[C@@H](CCC(=O)O)C(=O)N[C@@H](CCC(N)=O)C(=O)N[C@@H](CCC(=O)O)C(=O)N[C@@H](CCCCN)C(=O)N[C@@H](CCC(N)=O)C(=O)N[C@@H](CCCCN)C(=O)N[C@@H](CCCCN)C(=O)N[C@@H](CCC(N)=O)C(=O)N[C@@H](CCCNC(=N)N)C(=O)N[C@@H](CCC(=O)O)C(=O)N[C@@H](CCC(N)=O)C(=O)N[C@@H](C)C(=O)N[C@@H](CCC(=O)O)C(=O)N[C@H](C(=O)N[C@@H](CC(N)=O)C(=O)NC1(C(=O)N[C@@H](CCC(N)=O)C(=O)N[C@H](C(=O)N[C@@H](CC(C)C)C(=O)N[C@@H](C)C(=O)N[C@@H](CCC(N)=O)C(=O)N[C@H](C(N)=O)C(C)C)[C@@H](C)CC)CCNCC1)[C@@H](C)O)[C@@H](C)CC)[C@@H](C)CC)C(C)C)C(C)C
Take B3: in the test with CRF1R receptor, the “EC50” value amounted to 236 nM and the “Emax (% I)” value worked out at 39%. In addition, the EC50 [nM] (cAMP) in test [1] was 0.14 nM.

B4: SEQ ID NO 137 (peptide)
peptide: [NMeI]VLSLD[dV]PIKLK([γGlu-C18 diacid])KILLEQEKQKKQREQAETN[Aib]QILAQV-NH2
modifications: N-terminus assumed
SMILES: CC[C@H](C)[C@H](NC)C(=O)N[C@H](C(=O)N[C@@H](CC(C)C)C(=O)N[C@@H](CO)C(=O)N[C@@H](CC(C)C)C(=O)N[C@@H](CC(=O)O)C(=O)N[C@@H](C(=O)N1CCC[C@H]1C(=O)N[C@H](C(=O)N[C@@H](CCCCN)C(=O)N[C@@H](CC(C)C)C(=O)N[C@@H](CCCCNC(=O)CC[C@H](NC(=O)CCCCCCCCCCCCCCCCC(=O)O)C(=O)O)C(=O)N[C@@H](CCCCN)C(=O)N[C@H](C(=O)N[C@@H](CC(C)C)C(=O)N[C@@H](CC(C)C)C(=O)N[C@@H](CCC(=O)O)C(=O)N[C@@H](CCC(N)=O)C(=O)N[C@@H](CCC(=O)O)C(=O)N[C@@H](CCCCN)C(=O)N[C@@H](CCC(N)=O)C(=O)N[C@@H](CCCCN)C(=O)N[C@@H](CCCCN)C(=O)N[C@@H](CCC(N)=O)C(=O)N[C@@H](CCCNC(=N)N)C(=O)N[C@@H](CCC(=O)O)C(=O)N[C@@H](CCC(N)=O)C(=O)N[C@@H](C)C(=O)N[C@@H](CCC(=O)O)C(=O)N[C@H](C(=O)N[C@@H](CC(N)=O)C(=O)NC(C)(C)C(=O)N[C@@H](CCC(N)=O)C(=O)N[C@H](C(=O)N[C@@H](CC(C)C)C(=O)N[C@@H](C)C(=O)N[C@@H](CCC(N)=O)C(=O)N[C@H](C(N)=O)C(C)C)[C@@H](C)CC)[C@@H](C)O)[C@@H](C)CC)[C@@H](C)CC)C(C)C)C(C)C
On to B4, for which the “Emax (% I)” value with CRF1R receptor stood at 9%. The EC50 [nM] (cAMP) in test [1] is 0.07 nM.

B5: SEQ ID NO 69 (peptide)
peptide: [NMeI]VLSLD[dV]PIKLK([γGlu-C16 diacid])KILLEQEKQKKQREQAETN[Abu]QILAQV-NH2
modifications: N-terminus assumed
SMILES: CC[C@H](NC(=O)[C@H](CC(N)=O)NC(=O)[C@@H](NC(=O)[C@H](CCC(=O)O)NC(=O)[C@H](C)NC(=O)[C@H](CCC(N)=O)NC(=O)[C@H](CCC(=O)O)NC(=O)[C@H](CCCNC(=N)N)NC(=O)[C@H](CCC(N)=O)NC(=O)[C@H](CCCCN)NC(=O)[C@H](CCCCN)NC(=O)[C@H](CCC(N)=O)NC(=O)[C@H](CCCCN)NC(=O)[C@H](CCC(=O)O)NC(=O)[C@H](CCC(N)=O)NC(=O)[C@H](CCC(=O)O)NC(=O)[C@H](CC(C)C)NC(=O)[C@H](CC(C)C)NC(=O)[C@@H](NC(=O)[C@H](CCCCN)NC(=O)[C@H](CCCCNC(=O)CC[C@H](NC(=O)CCCCCCCCCCCCCCC(=O)O)C(=O)O)NC(=O)[C@H](CC(C)C)NC(=O)[C@H](CCCCN)NC(=O)[C@@H](NC(=O)[C@@H]1CCCN1C(=O)[C@H](NC(=O)[C@H](CC(=O)O)NC(=O)[C@H](CC(C)C)NC(=O)[C@H](CO)NC(=O)[C@H](CC(C)C)NC(=O)[C@@H](NC(=O)[C@@H](NC)[C@@H](C)CC)C(C)C)C(C)C)[C@@H](C)CC)[C@@H](C)CC)[C@@H](C)O)C(=O)N[C@@H](CCC(N)=O)C(=O)N[C@H](C(=O)N[C@@H](CC(C)C)C(=O)N[C@@H](C)C(=O)N[C@@H](CCC(N)=O)C(=O)N[C@H](C(N)=O)C(C)C)[C@@H](C)CC
As for B5, the “Emax (% I)” value in the test with CRF1R receptor was 3%. In test [1], this molecule registered an EC50 [nM] (cAMP) of 0.09 nM.

B6: SEQ ID NO 127 (peptide)
peptide: Ac-IVLSLD[dV]PIKLK([γGlu-C18 diacid])KILLEQEKQKKQREQAETN[Abu]QILAQV-NH2
SMILES: CC[C@H](NC(=O)[C@H](CC(N)=O)NC(=O)[C@@H](NC(=O)[C@H](CCC(=O)O)NC(=O)[C@H](C)NC(=O)[C@H](CCC(N)=O)NC(=O)[C@H](CCC(=O)O)NC(=O)[C@H](CCCNC(=N)N)NC(=O)[C@H](CCC(N)=O)NC(=O)[C@H](CCCCN)NC(=O)[C@H](CCCCN)NC(=O)[C@H](CCC(N)=O)NC(=O)[C@H](CCCCN)NC(=O)[C@H](CCC(=O)O)NC(=O)[C@H](CCC(N)=O)NC(=O)[C@H](CCC(=O)O)NC(=O)[C@H](CC(C)C)NC(=O)[C@H](CC(C)C)NC(=O)[C@@H](NC(=O)[C@H](CCCCN)NC(=O)[C@H](CCCCNC(=O)CC[C@H](NC(=O)CCCCCCCCCCCCCCCCC(=O)O)C(=O)O)NC(=O)[C@H](CC(C)C)NC(=O)[C@H](CCCCN)NC(=O)[C@@H](NC(=O)[C@@H]1CCCN1C(=O)[C@H](NC(=O)[C@H](CC(=O)O)NC(=O)[C@H](CC(C)C)NC(=O)[C@H](CO)NC(=O)[C@H](CC(C)C)NC(=O)[C@@H](NC(=O)[C@@H](NC(C)=O)[C@@H](C)CC)C(C)C)C(C)C)[C@@H](C)CC)[C@@H](C)CC)[C@@H](C)O)C(=O)N[C@@H](CCC(N)=O)C(=O)N[C@H](C(=O)N[C@@H](CC(C)C)C(=O)N[C@@H](C)C(=O)N[C@@H](CCC(N)=O)C(=O)N[C@H](C(N)=O)C(C)C)[C@@H](C)CC
As to B6, the “Emax (% I)” value with CRF1R receptor turned out to be 11%. The EC50 [nM] (cAMP) in test [1] stood at 0.08 nM.

The values are drawn from patent publication US20260001928A1 (CORTERIA PHARMACEUTICALS, priority 2022, published 2026).
